From the DeepSol protein solubility set

experiment: soluble on expression in E. coli; label from the status in PepcDB or PDB records

| Sequence | soluble on expression in E. coli |
| --- | --- |
| MAHHHHHHMSSKRTEGTAADEERRRTSAASSGSSSVSSTDSDEASSSVSDSSSSGSGSSSDSESSDSERPSSTPQRQSAAAAERATSTQQLQQQRHVQLNPELRFERPDKEYIPLPPLRDMQDMVKVLFLLSTDKKRYPDGRHRTLDYFRVAVEMFVTEVRQEYKRQYQQAQRNGRAMQRFTWKNSGELAICFACCCDNVKLLYDSLQPGPLKPLWDAFVGQLPPMLIVQSRVPETMLSSQTYHTKYMDWVKGGTRYGGEQSTANVRFPSVADRRVKVETYLRSGAGYKIEAVQVGSTPAAPAAVPAAVAPRPSLAAAAAPMQALETRAPFAGRLPGTGSAKVPVAPGVGGPRPPVKVPMKHVGGGVAHGSVTTAAAPPLASTSVKQMPPEMKHLFWLSVLAHVKGGEASRAFPDDRLEALPGLLRLCEMTEHTEEMCILMDVLAASSSGVQTVFERLGGLLSFRRFASHFIQSEEAEPLMQLVEQLARWRVAAWGSTSQQAWQTDMNQRRTRDLMWLRTLPLIPEAKRAAWGALLLVMEQRYIFKAPRPDDTTAVDNPLKRRRSEVELGDLHAVLSDNVDMQRWVVPRVNVFSAVRLPVELRVPPLCTKLEENTVRFLNAKREYAEKMQVTWRERLEKILSAQPRAPGPAVPVPLWYDPYALLRVASPQP | soluble |
| WIVQKQKKWSSDPVGTQKNVFDLLIKKAQKTTFGKDHAFDSIQSHADYCRLVPVREYEGFKEYIELVKQGTQDVLWPGIPLYFAKTSGTTSGVKYIPITKDSIGYHINGAKDALLNYVHQTGKSEFLDKKLIFLSGSPIMEKKNGIYIGRLSGIVNHHVPGYLRGNQLPSFETNCVDDWESKLEKIVDETIDQDMSLISGIPPWVQMYFDRIEERTHKKIKDVFPSFSLLVYGGVNFSPYKRKLIESIGKEIDTVETYPASEGFIAFQDIPGQAGLLLLLNSGIFYEFIPVEEYGSANPTRLTIGEVKTDVNYALVMSTNAGLFAYSIGDTVKFVSTAPYRIVVTGRVKHFISAFGEHVIGEEVEQAMKNALLKHPEVSITEFTVAPQVTPEEGLPYHEWLIEFISMPADMDQFAHDLDQEMIQKNIYYKDLIVGNILRPLVITSISAGGF | not soluble |
| GPGSMQRSTRIVMAPFKSVLRRHKHHPEGLPLYNDMSKQWLCREGERWWLLDARGEQLPRVAAVAAQYITGQHRPDFTPGMITGDHVVIVNIKDVVMVGDQWIRVPITWQTAYPGGKYRIRLTDMYERDPCMLMWWFLKDEVNRHFVRKLKTRIAPLEKAWLYEDSIHPHADKNPRPLCWTDPEVKGWKYRDPQFIRRWKPNEFMH | not soluble |
| MAHHHHHHMFSPVYEDVSGLFGHPMPISGFGPSTELQFPQTSYMTTTTNAPQTPTQQQQQQLAGRATVYSLVDASGVQLHRQAAPPQQIPMSSVPFGAFDGASIVPYEVFMQHQQQQQLAAAGKPTAVHAQDGVKYYLSSSTGAPVMASAGPAATTQANIMQMQQHGGTLYTLESNGTTTALTSTPPAGGLFSGAAAANGAPPSGEYPFYAAATGFLSSGPLGMAPATVGSASVTPYAIQGHMPSASPRARGAVNRSPAATIAGNQHHSNSGNNSSSASTRRENQATLHEM | not soluble |
| YEGEKSVVVPVSATYKELHKLMEKEFKGKEFSVVDYDDDETILLIAVQSDKLYGTYYQFDTRTKKFTLLYDLMPQLKEEDMAEMRPIKFKSRDGLTIHGFITLPKAALEGKKVPLIVNPHGGPQGIRDSWGFNPETQLFASRGYATLQVNFRISGGYGKEFLRAGFKQIGRKAMDDVEDGVRYAISQGWVDPDRIAIYGASHGGYATLMGLVKTPDLYACGVDYVGVSNIYTFFDSFPEYWKPFKEMVKEIWYDLDNPEEAAIAKEVSPFFQIDKINKPLFVVQGANDPRVNINESDQIVTALRARGFEVPYMVKYNEGHGFHREENSMELYRAMLGFFAKHLK | not soluble |
| MTEAPKIEKSFNEISDMEQIFVEHHSFGIVSLSSISESLKRLELSADLNIQELLAIKKVLQSSSDMIHFYSDLDNVSFQSLDRLFENLEQFPNLQGSFQAINDGGFLEHFASPELERIRRQLTNSERRVRQILQDMLKEKAELLSENLIASRSGRSVLPVKNTYRNRISGVVHDISSSGSTVYIEPRAVVTLNEEITQLRADERHEESRILHAFSDLLRPHVATIRNNAWILGHLDFVRAKYLFMSDNKATIPEISNDSTLALINVRHPLLSNPVANDLHFDQDLTAIVITGPNTGGKTIMLKTLGLAQLMGQSGLPVLADKGSKIAVFNNIFADIGDEQSIEQSLSTFSSHMTHIVSILNEADHNSLVLFDELGAGTDPQEGASLAMAILEHLRLSNIKTMATTHYPELKAYGIETNFVENASMEFDAETLSPTYRFMQGVPGRSNAFEIASRLGLAPFIVKQAKQMTDSDSDVNRIIEQLEAQTLETRRRLDHIKEVEQENLKFNRAVKKLYNEFSHERDKELEKIYQEAQEIVDMALNESDTILKKLNDKSQLKPHEIIDAKAQIKKLAPQVDLSKNKVLNKAKKIKAARAPRIGDDIIVTSYGQRGTLTSQLKDGRWEAQVGIIKMTLTQDEFTLVRVQEEQKVKSKQINVVKKADSSGPRARLDLRGKRYEEAMQELDNFIDQALLNNMGQVDIIHGIGTGVIREGVTKYLRRNKHVKHFAYAPQNAGGSGATIVTLGLEHHHHHH | not soluble |
| MKALITAADIKKASETPEKILTISEADLITPAARDAAKELGVQITAHPVSLPPTVAPSPAFSPASPLDPALVSRIIEEVMVCLNRSGSPAQPQKEADPGGLRIVKGNSLILEDFATGNPRDQIKIKELFNKKECPLYSAGIMALDKTSYSLTPARDELNYIIEGTLECCIDNRCYTAQAGDTLYIPAQAKIILTAADKVKLFYVC | not soluble |
| MGSDKIHHHHHHMPYFERDGYYIDRCPECRFVYVRNVPSDGTLAAFYSGYYGDVNEFVPVSRKRLSKRFSKSVENWWHARNLVRCAAGRRKLLEIGYGEGHLLMALKQTRRFELRGIDYATGPMAYMSANGIDVAQGSLFDQHYPDNRFEFIVGFHVLEHVQHLGEFMSEVRRVLAPAGRVYFVVPCVTHFSAVRRRQNWKHFGPPGHLWYFSVTAMRRFMTDQDFKVVSAHCISNRTHLTVLAEKTS | not soluble |
| SKLNERSVAHYALSDSPADHMGFLRTWGGPGTPPTPSGTGRRCWFVLKGNLLFSFESREGRAPLSLVVLEGCTVELAEAPVPEEFAFAICFDAPGVRPHLLAAEGPAAQEAWVKVLSRASFGYMRLVVRELESQLQDARQSLALQRRSSWKSVASRCKPQAPNHRAAGLENGHCLSKDSSPVGLVEEAGSRSAGWGLAEWELQGPASLLLGKGQSPVSPETSCFSTLHDWYGQEIVELRQCWQKRAQGSHSKCEEQDRP | soluble |
| MAMDNQGWFSNETATFGDRLAGAREAAGLTQEEMARRLGVRLKTLQSWEDDLAEPRANRLQMMAGMLNVSLRWLLTGEGEGAEGPSEPAILTSEGREALAELARMRTQMLALAQEMGQLEKRMRALLRKEAE | not soluble |
| MGSDKIHHHHHHMKRFLFSFLFGLVLLSGCDFEHEIIEILDMIVSEDQSTDVVAPPTSGEATITFFDVGQGDSTLIRSENYTVLVDTGRHDSDAIFTHLEKQQIDQIDLLILTHPHADHIGNADEIVRLYSPEEVWIDGNEATSKTFENVIDALLDSEAEVVEPRAGDVYERGDFLFEIVNPTKLTGDLNNDSIAFRLTYGDVRVVMTGDAEEAAEQEMVASGTDLEADIFKVAHHGSSTSNQPFFLDEIEPTVAIYSAGEDNSYGHPHREVTSLLNERGIDIFGTDIHGTVLITTDGHTYSIQTEH | not soluble |
| MAHHHHHHMAPPNGTVCCPEDLKMYSTIQLNQEIEISKNPFPLHEINKKNDIPLCAQEFSDLTDPLYIKKICLEKVPEWNHFTEDNLRVKQILSGLTNQLFEVGLKEETANNYNSIRTRVLFRIYGKHVDELYNTISEFEVYKTMSKYKIAPQLLNTFNGGRIEEWLYGDPLRIDDLKNPTILIGIANVLGKFHTLSRKRHLPEHWDRTPCIFKMMEKWKNQLFKYKNIEKYNCDIHKYIKESDKFIKFMKVYSKSDNLANTIVFCHNDLQENNIINTNKCLRLIDFEYSGFNFLATDIANFFIETSIDYSVSSYPFFEIDKKKYISYENRKLFITAYLSNYLDKSLVVPTPKLIDEILEAVEVQALGAHLLWGFWSIIRGYQTKSYNEFDFFLYAEQRLKMYDDQKEYLISNNI | not soluble |
| MGSDKIHHHHHHMTNVGRPIETHAITVGQGSDARSIAALVRAPAQDERPTCIWLGGYRSDMTGTKALEMDDLAASLGVGAIRFDYSGHGASGGAFRDGTISRWLEEALAVLDHFKPEKAILVGSSMGGWIALRLIQELKARHDNPTQVSGMVLIAPAPDFTSDLIEPLLGDRERAELAENGYFEEVSEYSPEPNIFTRALMEDGRANRVMAGMIDTGCPVHILQGMADPDVPYQHALKLVEHLPADDVVLTLVRDGDHRLSRPQDIDRMRNAIRAMIEPRP | not soluble |
| MSLHEKKKENVPEWQHFDAAIFNKAKKEHKLVLLHLGANWCHWCHVMEEQTYTDPFVLELLNKSYIACKEDHDERQDLTSLYAAYGWPATIVFDADGNELLKEAGFISSDRFIALLKKLVKNPTPMPTDSVQIEPAVASDSSTQQALNTLKKKFYSSLDIEGGGFNYAQKYIDFETFEYAFNHSENDSILTKWLYNSVVNSAGLNDNVWGGVFQYSTHSDWNHLHYEKLLSIQARYIKMYCWYYKRFNDADALSHAESAAKYVQRFLDDPKGGFYNSQDADVTPGEKATEYFKLNNADRIKKGIPAIDKNSYTSDNAEMIEACIILSAATGNNTYLEKAVRCFDFIKKNNKTNNAYAHGSNYTNSISLKDNIAIVKSALLLYRATQDAAYKSEALRIIQEVAGTFYSKKGYMISFIGNSPIKGSYNITENIEACRLLNYCSHVFNEPKYKILAQTIFGFLTNENLVKTMSTEPGILSAYEELNTEPLKAVLMIKNGTELKTDFLNSSLSFPAFYFDNTIYTSTTIPSDKYELFDSFDKNFIVACTASYCSSPMFSKDGFEKFIYRRAFSTEGHHHHHH | soluble |
| MGHHHHHHSHDSLAEFKVPLILFSGGEPLLREDIFEIAGYAKKKGIKSVLSTNGTLIDRDMAENLKVFEYVGVSLDGVASTNDRFRGVEGAYERAFKGLLMASEVVLSGIRFTVSKYNYKDVFSLIELAREHEIPRFCLYHLVPSGRAEFKDDITNEQRRALLDNLLREAEKEGMEIMTVDNPADGIYTYLKLKEADSEKAEMALEFLKFRGGDSSGIRLANIDHQGNVHPNQFW | soluble |
| MFHCKGLYMSDQNDKLKNLKTSSMDRRLSIAKASLLAGTRWATASATSMFSSEAEKEKKRKKAMTEQANYLVSEIGKLKGSIVKIGQMMALYGEHFLPEEITQALNTLNNQTVALAWPAIKAHLQEQLGSKLDDLIIDHEPIGTASLAQVHRATRKSDGLELVLKIQYPGVAEAIDSDMSLFKNMLKLTRMVPQTREFDQWFDEVREMMHREVSYDIEAATTRRFAERLKTDPRYAVPQIIDAYCTTKILCMTFERGVPINSPVMLSLPQERRNKLGEASLEIAVREIFEWGEMQTDPNFGNYLVRLGNGTDIQDKIVLLDFGAIRQFDEHLLSVARNLIRAGYNHSNEEMVRAMTGYSFFDSIPESIKPDMAKVFLLATEAFSCPENNPDMPTGLMDEDNRYDWKKSQLHSRVMQQASKSMASRYFSVPPKEFMFISRKFIGAYTFMTVIEAKTNVRRMISHFVKLEHHHHHH | not soluble |
| MGSDKIHHHHHHMLVVIPQVLNAEQVGAVRERLEHAGEAWVDGRVTAGYSGAPVKFNQQIDERSDVALECQRLILGMLERNPRFISAALPNIVYPPMFNRYSEGMTFGAHVDGSVRIHPHDGRKLRTDISATLFLSPHDSYDGGELQVQDTYGMHSVKLDAGDMVVYPATSLHQVTPITRGTRVASFFWIQSLIRDDTQRSLLFDMDNAIQRLNQTGADEEARRTLVGCYHNLLRQWSET | not soluble |
| MKQPEEELQETLTELDDRAVVDYLRHHPEFFIRNAHAVEAMRVPHPVRGTVSLVEWHMARARNHINVLEENMTLLMEQAHANESLFYRLLHLQSRLVAADSLDEMLVRFHRWARDLGLAGATLRLFPDRWRLGAPSRYTHLALNRQAFEPLRIQRLGQSQHYLGPLNGPELLVVLPEAKAVGSVAMSMMGSDGGLGVILFSSRDPHHYQPGQGTQLLQEIALMLPELLERWIKRVLEHHHHHH | not soluble |
